The text below walks through data of US20180030100A1.

In assay [1] the target is Plexin A4 receptor expressed on transfected COS-7 cells. Description: AP-conjugated ligand binding curves on COS-7 cells expressing Plexin A4, estimated affinity (FIG. 4E).
Assay [2] shares this target. The experiment in a line: cell-binding assay: AP-conjugated ligand on COS-7 cells expressing Plexin A4, p-nitrophenyl phosphate, absorbance at 405 nm [cont. 1). B].
The target is the same in assay [3]. Description: AP-conjugated ligand on COS-7 cells expressing Plexin A4, cell-bound AP activity with p-nitrophenyl phosphate, Scatchard plot (FIG. 4C).
Assay [4] deals with Nrp1 expressed on transfected COS cells. The experiment in a line: AP-conjugated ligand on COS cells expressing Nrp1, cell-bound AP activity with p-nitrophenyl phosphate, binding curve (FIG. 4D).
Assay [5] deals with PlexinA4 of human umbilical vein endothelial cells (human) (UniProt Q9HCM2). Description: cell-based or functional assay.
UniProt Q9HCM2, sequence (Q9HCM2 24-1894): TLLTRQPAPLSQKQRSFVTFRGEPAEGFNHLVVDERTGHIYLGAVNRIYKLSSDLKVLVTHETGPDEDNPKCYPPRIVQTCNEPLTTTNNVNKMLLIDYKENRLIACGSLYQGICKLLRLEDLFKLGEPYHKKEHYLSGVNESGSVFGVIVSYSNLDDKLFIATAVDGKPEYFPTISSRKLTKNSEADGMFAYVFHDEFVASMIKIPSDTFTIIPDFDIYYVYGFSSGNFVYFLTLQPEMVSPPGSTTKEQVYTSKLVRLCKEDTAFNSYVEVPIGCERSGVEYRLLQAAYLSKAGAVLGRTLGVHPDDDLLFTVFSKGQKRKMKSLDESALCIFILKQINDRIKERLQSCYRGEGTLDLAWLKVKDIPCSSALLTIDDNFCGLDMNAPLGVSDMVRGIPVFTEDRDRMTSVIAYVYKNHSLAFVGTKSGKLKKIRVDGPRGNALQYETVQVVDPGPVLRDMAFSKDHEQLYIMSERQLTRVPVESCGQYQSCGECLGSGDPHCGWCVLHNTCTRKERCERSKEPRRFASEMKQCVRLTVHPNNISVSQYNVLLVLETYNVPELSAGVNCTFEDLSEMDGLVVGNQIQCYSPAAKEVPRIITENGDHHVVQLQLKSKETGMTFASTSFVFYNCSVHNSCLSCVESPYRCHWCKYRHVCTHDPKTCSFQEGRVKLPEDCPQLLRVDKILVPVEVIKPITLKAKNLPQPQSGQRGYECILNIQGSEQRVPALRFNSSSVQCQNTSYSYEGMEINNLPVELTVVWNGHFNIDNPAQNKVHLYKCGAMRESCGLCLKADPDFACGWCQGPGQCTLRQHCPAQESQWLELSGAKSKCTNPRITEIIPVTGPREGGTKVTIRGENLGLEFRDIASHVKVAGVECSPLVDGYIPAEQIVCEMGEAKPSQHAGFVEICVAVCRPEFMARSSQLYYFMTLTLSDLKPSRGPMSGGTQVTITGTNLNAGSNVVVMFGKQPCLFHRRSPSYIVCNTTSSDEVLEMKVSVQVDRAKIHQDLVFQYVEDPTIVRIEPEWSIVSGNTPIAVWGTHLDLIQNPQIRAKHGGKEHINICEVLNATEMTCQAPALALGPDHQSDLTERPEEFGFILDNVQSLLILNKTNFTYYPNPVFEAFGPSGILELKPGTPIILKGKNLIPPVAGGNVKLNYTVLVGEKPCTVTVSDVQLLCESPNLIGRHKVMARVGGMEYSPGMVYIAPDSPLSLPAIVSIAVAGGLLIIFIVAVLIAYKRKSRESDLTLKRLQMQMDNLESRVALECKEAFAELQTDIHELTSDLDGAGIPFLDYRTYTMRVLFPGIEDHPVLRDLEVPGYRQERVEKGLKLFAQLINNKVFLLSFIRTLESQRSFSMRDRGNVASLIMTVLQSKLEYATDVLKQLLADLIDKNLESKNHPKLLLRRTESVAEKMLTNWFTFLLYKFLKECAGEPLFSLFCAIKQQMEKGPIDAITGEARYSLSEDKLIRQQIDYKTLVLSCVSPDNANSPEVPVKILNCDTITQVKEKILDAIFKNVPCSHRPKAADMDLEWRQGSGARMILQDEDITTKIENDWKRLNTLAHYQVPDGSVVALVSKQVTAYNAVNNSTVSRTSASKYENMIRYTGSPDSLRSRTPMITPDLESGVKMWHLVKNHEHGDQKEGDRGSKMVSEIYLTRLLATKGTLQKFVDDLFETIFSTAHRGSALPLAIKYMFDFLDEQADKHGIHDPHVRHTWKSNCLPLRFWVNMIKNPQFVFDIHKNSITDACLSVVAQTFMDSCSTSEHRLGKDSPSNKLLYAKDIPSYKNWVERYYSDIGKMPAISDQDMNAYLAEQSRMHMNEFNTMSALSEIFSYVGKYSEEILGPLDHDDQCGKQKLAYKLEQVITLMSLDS

As for “alkaline phosphatase (AP)-conjugated mutant Sema3A ΔIg-b (from UniProt P05187 23-511) (ligand)”, the Kd (in general, the concentration at which binding is half-saturated) in assay [1] was 200000 pM.
With “alkaline phosphatase (AP)-conjugated mutant Sema3A A106K ΔIg-b (from UniProt P05187 23-511) (ligand)”, in assay [2], the concentration for a half-maximal effect (EC50 (read off the curve)) (commonly the midpoint of the concentration-response curve) was determined as 500 pM. The Kd in assay [1] and in assay [3] was 700 pM each time.

B1: alkaline phosphatase (AP)-conjugated Sema3A WT (ligand, not shown: large carriers)
chain: NYANGKNNVPRLKLSYKEMLESNNVITFNGLANSSSYHTFLLDEERSRLYVGAKDHIFSFNLVNIKDFQKIVWPVSYTRRDECKWAGKDILKECANFIKVLEAYNQTHLYACGTGAFHPICTYIEVGHHPEDNIFKLQDSHFENGRGKSPYDPKLLTASLLIDGELYSGTAADFMGRDFAIFRTLGHHHPIRTEQHDSRWLNDPRFISAHLIPESDNPEDDKVYFFFRENAIDGEHSGKATHARIGQICKNDFGGHRSLVNKWTTFLKARLICSVPGPNGIDTHFDELQDVFLMNSKDPKNPIVYGVFTTSSNIFKGSAVCMYSMSDVRRVFLGPYAHRDGPNYQWVPYQGRVPYPRPGTCPSKTFGGFDSTKDLPDDVITFARSHPAMYNPVFPINNRPIMIKTDVNYQFTQIVVDRVDAEDGQYDVMFIGTDVGTVLKVVSVPKETWHDLEEVLLEEMTVFREPTTISAMELSTKQQQLYIGSTAGVAQLPLHRCDIYGKACAECCLARDPYCAWDGSSCSRYFPTAKRRTRRQDIRNGDPLTHCSDLQHHDNHHGPSLEERIIYGVENSSTFLECSPKSQRALVYWQFQRRNEDRKEEIRMGDHIIRTEQGLLLRSLQKKDSGNYLCHAVEHGFMQTLLKVTLEVIDTEHLEELLHKDDDGDGSKIKEMSSSMTPSQKVWYRDFMQLINHPNLNTMDEFCEQVWKRDRKQRRQRPGHSQGSSNKWKHMQESKKGRNRRTHEFERAPRSV
Consider B1, for which the Kd in assay [4] was 1100 pM; in assay [1] it was 7000 pM.

B2: mouse Fc-tagged Sema3A A106K ΔIg-b (Fc fusion)
chain: NYANGKNNVPRLKLSYKEMLESNNVITFNGLANSSSYHTFLLDEERSRLYVGAKDHIFSFNLVNIKDFQKIVWPVSYTRRDECKWKGKDILKECANFIKVLEAYNQTHLYACGTGAFHPICTYIEVGHHPEDNIFKLQDSHFENGRGKSPYDPKLLTASLLIDGELYSGTAADFMGRDFAIFRTLGHHHPIRTEQHDSRWLNDPRFISAHLIPESDNPEDDKVYFFFRENAIDGEHSGKATHARIGQICKNDFGGHRSLVNKWTTFLKARLICSVPGPNGIDTHFDELQDVFLMNSKDPKNPIVYGVFTTSSNIFKGSAVCMYSMSDVRRVFLGPYAHRDGPNYQWVPYQGRVPYPRPGTCPSKTFGGFDSTKDLPDDVITFARSHPAMYNPVFPINNRPIMIKTDVNYQFTQIVVDRVDAEDGQYDVMFIGTDVGTVLKVVSVPKETWHDLEEVLLEEMTVFREPTTISAMELSTKQQQLYIGSTAGVAQLPLHRCDIYGKACAECCLARDPYCAWDGSSCSRYFPTGCKPCICTVPEVSSVFIFPPKPKDVLTITLTPKVTCVVVDISKDDPEVQFSWFVDDVEVHTAQTQPREEQFNSTFRSVSELPIMHQDWLNGKEFKCRVNSAAFPAPIEKTISKTKGRPKAPQVYTIPPPKEQMAKDKVSLTCMITDFFPEDITVEWQWNGQPAENYKNTQPIMDTDGSYFVYSKLNVQKSNWEAGNTFTCSVLHEGLHNHHTEKSLSHSPGK
As to B2, in assay [5], the Relative migration of ECs towards type I collagen at 3 h:45 m, 0.2 nM (xCELLigence) was 60 % of control; the Relative migration of ECs towards type I collagen at 3 h:45 m, 0.9 nM (xCELLigence) was 64 % of control; the Relative migration of ECs towards type I collagen at 3 h:45 m, 3.5 nM (xCELLigence) was 55 % of control; the activation of ERK 1/2 phosphorylation in ECs (Western blot, 15 minutes) came out at 3.9 fold.
